Biological target: T1, BdSWN5 (Brachypodium distachyon, UniProt I2E2W5 1-346)
T1 sequence: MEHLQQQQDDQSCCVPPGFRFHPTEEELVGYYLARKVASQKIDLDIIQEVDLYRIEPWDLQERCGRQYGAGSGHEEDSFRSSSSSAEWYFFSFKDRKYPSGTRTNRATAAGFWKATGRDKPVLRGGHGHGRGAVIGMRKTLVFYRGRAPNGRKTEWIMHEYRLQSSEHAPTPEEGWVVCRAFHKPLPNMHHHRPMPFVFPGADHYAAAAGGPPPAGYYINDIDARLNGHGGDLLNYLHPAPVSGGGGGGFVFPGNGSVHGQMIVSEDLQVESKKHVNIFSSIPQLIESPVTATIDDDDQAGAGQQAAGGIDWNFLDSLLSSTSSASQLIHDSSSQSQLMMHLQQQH
Assay: competition

B1: SNBE1 M1 motif (dsDNA)
DNA 1: AGCATACATTTATAGGAAGCGTATTCTCGCAGTCA
DNA 2: TGACTGCGAGAATACGCTTCCTATAAATGTATGCT
**Q.** Does B1 bind?
**A.** no binding

B2: SNBE2 M2 motif (dsDNA)
DNA 1: TTTTACATTGCATATGCTTTGTATCAATTGCCCAA
DNA 2: TTGGGCAATTGATACAAAGCATATGCAATGTAAAA
**Q.** Does B2 bind?
**A.** no binding
